Source: paper doi:10.1101/2021.07.09.451751v1

B1: histidine-tagged human MLH1 NTD (Homo sapiens; K311E) (protein)
chain: MSFVAGVIRRLDETVVNRIAAGEVIQRPANAIKEMIENCLDAKSTSIQVIVKEGGLKLIQIQDNGTGIRKEDLDIVCERFTTSKLQSFEDLASISTYGFRGEALASISHVAHVTITTKTADGKCAYRASYSDGKLKAPPKPCAGNQGTQITVEDLFYNIATRRKALKNPSEEYGKILEVVGRYSVHNAGISFSVKKQGETVADVRTLPNASTVDNIRSIFGNAVSRELIEIGCEDKTLAFKMNGYISNANYSVKKCIFLLFINHRLVESTSLRKAIETVYAAYLPKNTHPFLYLSLEISPQNVDVNVHPTEHEVHFLHEESILERVQQHIESKLLG
B2: histidine-tagged human MLH1 NTD (Homo sapiens) (protein)
chain: MSFVAGVIRRLDETVVNRIAAGEVIQRPANAIKEMIENCLDAKSTSIQVIVKEGGLKLIQIQDNGTGIRKEDLDIVCERFTTSKLQSFEDLASISTYGFRGEALASISHVAHVTITTKTADGKCAYRASYSDGKLKAPPKPCAGNQGTQITVEDLFYNIATRRKALKNPSEEYGKILEVVGRYSVHNAGISFSVKKQGETVADVRTLPNASTVDNIRSIFGNAVSRELIEIGCEDKTLAFKMNGYISNANYSVKKCIFLLFINHRLVESTSLRKAIETVYAAYLPKNTHPFLYLSLEISPQNVDVNVHPTKHEVHFLHEESILERVQQHIESKLLG
B3: full-length aqMutL (Aquifex aeolicus VF5) (protein)
chain: MFVKLLPPEVRKVIAAGEVIESPVDVVKELVENSLDAKATKVEVEIVKGGKRLIRVKDNGTGIHPEDVEKVVLQGATSKIETEKDLMNISTYGFRGEALYSISSVSKFKLRSRFFQEKEGKEIEVEAGNILGTRRVGMPVGTEVEVRDLFFNLPVRRKFLKKEDTERRKVLELIKEYALTNPEVEFTLFSEGRETLKLKKSSLKERVEEVFQTKTEELYAEREGITLRAFVSRNQRQGKYYVFINKRPIQNKNLKEFLRKVFGYKTLVVLYAELPPFMVDFNVHPKKKEVNILKERKFLELVRELAGKEKPIVDIPLSQPVKTYKPTYEILGQMDETFILVKDSEYLYFVDQHLLEERINYEKLKDENLACRISVKAGQKLSEEKIRELIKTWRNLENPHVCPHGRPIYYKIPLREIYEKVGRNY
B4: full-length aqMutL (Aquifex aeolicus VF5; K79R) (protein)
chain: MFVKLLPPEVRKVIAAGEVIESPVDVVKELVENSLDAKATKVEVEIVKGGKRLIRVKDNGTGIHPEDVEKVVLQGATSRIETEKDLMNISTYGFRGEALYSISSVSKFKLRSRFFQEKEGKEIEVEAGNILGTRRVGMPVGTEVEVRDLFFNLPVRRKFLKKEDTERRKVLELIKEYALTNPEVEFTLFSEGRETLKLKKSSLKERVEEVFQTKTEELYAEREGITLRAFVSRNQRQGKYYVFINKRPIQNKNLKEFLRKVFGYKTLVVLYAELPPFMVDFNVHPKKKEVNILKERKFLELVRELAGKEKPIVDIPLSQPVKTYKPTYEILGQMDETFILVKDSEYLYFVDQHLLEERINYEKLKDENLACRISVKAGQKLSEEKIRELIKTWRNLENPHVCPHGRPIYYKIPLREIYEKVGRNY
B5: full-length aqMutL (Aquifex aeolicus VF5; N282A) (protein)
chain: MFVKLLPPEVRKVIAAGEVIESPVDVVKELVENSLDAKATKVEVEIVKGGKRLIRVKDNGTGIHPEDVEKVVLQGATSKIETEKDLMNISTYGFRGEALYSISSVSKFKLRSRFFQEKEGKEIEVEAGNILGTRRVGMPVGTEVEVRDLFFNLPVRRKFLKKEDTERRKVLELIKEYALTNPEVEFTLFSEGRETLKLKKSSLKERVEEVFQTKTEELYAEREGITLRAFVSRNQRQGKYYVFINKRPIQNKNLKEFLRKVFGYKTLVVLYAELPPFMVDFAVHPKKKEVNILKERKFLELVRELAGKEKPIVDIPLSQPVKTYKPTYEILGQMDETFILVKDSEYLYFVDQHLLEERINYEKLKDENLACRISVKAGQKLSEEKIRELIKTWRNLENPHVCPHGRPIYYKIPLREIYEKVGRNY
B6: full-length aqMutL (Aquifex aeolicus VF5; K28E) (protein)
chain: MFVKLLPPEVRKVIAAGEVIESPVDVVEELVENSLDAKATKVEVEIVKGGKRLIRVKDNGTGIHPEDVEKVVLQGATSKIETEKDLMNISTYGFRGEALYSISSVSKFKLRSRFFQEKEGKEIEVEAGNILGTRRVGMPVGTEVEVRDLFFNLPVRRKFLKKEDTERRKVLELIKEYALTNPEVEFTLFSEGRETLKLKKSSLKERVEEVFQTKTEELYAEREGITLRAFVSRNQRQGKYYVFINKRPIQNKNLKEFLRKVFGYKTLVVLYAELPPFMVDFNVHPKKKEVNILKERKFLELVRELAGKEKPIVDIPLSQPVKTYKPTYEILGQMDETFILVKDSEYLYFVDQHLLEERINYEKLKDENLACRISVKAGQKLSEEKIRELIKTWRNLENPHVCPHGRPIYYKIPLREIYEKVGRNY
B7: full-length aqMutL (Aquifex aeolicus VF5; K287A) (protein)
chain: MFVKLLPPEVRKVIAAGEVIESPVDVVKELVENSLDAKATKVEVEIVKGGKRLIRVKDNGTGIHPEDVEKVVLQGATSKIETEKDLMNISTYGFRGEALYSISSVSKFKLRSRFFQEKEGKEIEVEAGNILGTRRVGMPVGTEVEVRDLFFNLPVRRKFLKKEDTERRKVLELIKEYALTNPEVEFTLFSEGRETLKLKKSSLKERVEEVFQTKTEELYAEREGITLRAFVSRNQRQGKYYVFINKRPIQNKNLKEFLRKVFGYKTLVVLYAELPPFMVDFNVHPKAKEVNILKERKFLELVRELAGKEKPIVDIPLSQPVKTYKPTYEILGQMDETFILVKDSEYLYFVDQHLLEERINYEKLKDENLACRISVKAGQKLSEEKIRELIKTWRNLENPHVCPHGRPIYYKIPLREIYEKVGRNY
B8: aqGyrB NTD (Aquifex aeolicus VF5) (protein)
chain: MKKRQSQTPQEYTAEAIKAVSGLEHVRLRPAMYIGDIGERGLHHLIWEILDNAVDEAVAGYARNISVTIHRDNSVTVEDDGRGIPVDIHPETGKPAVEMVFTMLGAGGKFEKKVYTYSGGLHGVGASVVNALSEWLIVEVYRDGKIYRMAFKRGEVVEPLHVVGETKKRGTKVSFKPDPEIFETTEIKFDIVEKRVRELAYLNPEVKFELTDERLGKHLIYKFDRGIEELVKYLNEGKEPLFKDIIRIQGEKEGVIVDIAFQYVKDYKERIESFVNNIKTVEGGTHVTGFRSGLSKAVIRMAQGLKLAKELKKSFTGEDVREGLTAVVACKVPNPQFEGQTKTKLGNQNVKQIVESITYDFLTSYFEKKRDVLKAIVEKAIEAALAREAAKKAKELV
B9: ProS2-fused human PMS2 NTD (Homo sapiens; K91R) (protein)
chain: MERAESSSTEPAKAIKPIDRKSVHQICSGQVVLSLSTAVKELVENSLDAGATNIDLKLKDYGVDLIEVSDNGCGVEEENFEGLTLKHHTSRIQEFADLTQVETFGFRGEALSSLCALSDVTISTCHASAKVGTRLMFDHNGKIIQKTPYPRPRGTTVSVQQLFSTLPVRHKEFQRNIKKEYAKMVQVLHAYCIISAGIRVSCTNQLGQGKRQPVVCTGGSPSIKENIGSVFGQKQLQSLIPFVQLPPSDSVCEEYGLSCSDALHNLFYISGFISQCTHGVGRSSTDRQFFFINRRPCDPAKVCRLVNEVYHMYNRHQYPFVVLNISVDSECVDINVTPDKRQILLQEEKLLLAVLKTSLIGMFDS
B10: ProS2-fused human PMS2 NTD (Homo sapiens) (protein)
chain: MERAESSSTEPAKAIKPIDRKSVHQICSGQVVLSLSTAVKELVENSLDAGATNIDLKLKDYGVDLIEVSDNGCGVEEENFEGLTLKHHTSKIQEFADLTQVETFGFRGEALSSLCALSDVTISTCHASAKVGTRLMFDHNGKIIQKTPYPRPRGTTVSVQQLFSTLPVRHKEFQRNIKKEYAKMVQVLHAYCIISAGIRVSCTNQLGQGKRQPVVCTGGSPSIKENIGSVFGQKQLQSLIPFVQLPPSDSVCEEYGLSCSDALHNLFYISGFISQCTHGVGRSSTDRQFFFINRRPCDPAKVCRLVNEVYHMYNRHQYPFVVLNISVDSECVDINVTPDKRQILLQEEKLLLAVLKTSLIGMFDS
B11: ProS2-fused human PMS2 NTD (Homo sapiens; K340E) (protein)
chain: MERAESSSTEPAKAIKPIDRKSVHQICSGQVVLSLSTAVKELVENSLDAGATNIDLKLKDYGVDLIEVSDNGCGVEEENFEGLTLKHHTSKIQEFADLTQVETFGFRGEALSSLCALSDVTISTCHASAKVGTRLMFDHNGKIIQKTPYPRPRGTTVSVQQLFSTLPVRHKEFQRNIKKEYAKMVQVLHAYCIISAGIRVSCTNQLGQGKRQPVVCTGGSPSIKENIGSVFGQKQLQSLIPFVQLPPSDSVCEEYGLSCSDALHNLFYISGFISQCTHGVGRSSTDRQFFFINRRPCDPAKVCRLVNEVYHMYNRHQYPFVVLNISVDSECVDINVTPDERQILLQEEKLLLAVLKTSLIGMFDS
B12: ProS2-fused human PMS2 NTD (Homo sapiens; K340A) (protein)
chain: MERAESSSTEPAKAIKPIDRKSVHQICSGQVVLSLSTAVKELVENSLDAGATNIDLKLKDYGVDLIEVSDNGCGVEEENFEGLTLKHHTSKIQEFADLTQVETFGFRGEALSSLCALSDVTISTCHASAKVGTRLMFDHNGKIIQKTPYPRPRGTTVSVQQLFSTLPVRHKEFQRNIKKEYAKMVQVLHAYCIISAGIRVSCTNQLGQGKRQPVVCTGGSPSIKENIGSVFGQKQLQSLIPFVQLPPSDSVCEEYGLSCSDALHNLFYISGFISQCTHGVGRSSTDRQFFFINRRPCDPAKVCRLVNEVYHMYNRHQYPFVVLNISVDSECVDINVTPDARQILLQEEKLLLAVLKTSLIGMFDS

Tests used:
[1] = substrate: Nc1ncnc2c1ncn2[C@@H]1O[C@H](COP(=O)(O)OP(=O)(O)OP(=O)(O)O)[C@@H](O)[C@H]1O; assay: phosphate release, BIOMOL Green; type: biochemical, Homo sapiens; details: 50 mM HEPES-KOH pH 7.5, 100 mM NaCl, 5 mM MgCl2, 37 °C
[2] = substrate: Nc1ncnc2c1ncn2[C@@H]1O[C@H](COP(=O)(O)OP(=O)(O)OP(=O)(O)O)[C@@H](O)[C@H]1O; assay: phosphate release, BIOMOL Green; type: biochemical, Aquifex aeolicus; details: 50 mM HEPES-KOH pH 7.5, 100 mM NaCl, 5 mM MgCl2, 70 °C

Protein	Km [1] [µM]	kcat [1] [s⁻¹]	Km [2] [µM]	kcat [2] [s⁻¹]
B1	750 ± 130	0.000333 ± 5e-05	–	–
B2	790 ± 75	0.00267 ± 0.000108	–	–
B3	–	–	360 ± 190	0.025 ± 0.0025
B4	–	–	610 ± 130	0.00283 ± 0.000233
B5	–	–	560 ± 54	0.000483 ± 1.67e-05
B6	–	–	900 ± 73	0.00733 ± 0.000367
B7	–	–	370 ± 36	0.00767 ± 0.000383
B8	–	–	250 ± 41	0.0367 ± 0.00217
B9	300 ± 42	0.000733 ± 2.83e-05	–	–
B10	190 ± 39	0.00617 ± 0.0003	–	–
B11	80 ± 12	0.000483 ± 3e-05	–	–
B12	160 ± 93	0.00105 ± 0.000135	–	–
